This is an account of results in patent publication KR20220160483A (dated 2022).

For test [1], the target named is T1, 재조합 인간 ASM(acid sphingomyelinase) 단백질 (human, UniProt P17405 62-630, limits assumed).
T1 construct: Recombinant protein, bought (R&D systems in the ELISA); also called 인간 ASM 단백질; recombinant human ASM protein
T1 sequence: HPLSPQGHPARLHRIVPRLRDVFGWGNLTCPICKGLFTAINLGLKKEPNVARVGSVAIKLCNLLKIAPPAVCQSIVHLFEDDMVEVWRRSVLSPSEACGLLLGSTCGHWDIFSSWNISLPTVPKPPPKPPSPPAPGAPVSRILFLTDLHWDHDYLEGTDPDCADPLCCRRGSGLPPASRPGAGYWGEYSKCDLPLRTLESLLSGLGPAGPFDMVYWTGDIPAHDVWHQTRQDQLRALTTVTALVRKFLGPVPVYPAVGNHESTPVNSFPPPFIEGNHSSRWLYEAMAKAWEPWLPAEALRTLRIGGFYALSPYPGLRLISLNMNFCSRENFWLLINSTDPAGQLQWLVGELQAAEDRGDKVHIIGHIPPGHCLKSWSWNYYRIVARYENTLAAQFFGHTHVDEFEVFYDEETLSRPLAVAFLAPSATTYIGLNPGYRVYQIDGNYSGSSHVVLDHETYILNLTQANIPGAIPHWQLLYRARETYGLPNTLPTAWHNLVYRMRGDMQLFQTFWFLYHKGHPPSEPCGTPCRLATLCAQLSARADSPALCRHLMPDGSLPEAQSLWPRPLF
Description: BLI (Octet QK384), human ASM amine-coupled on AR2G sensor, antibody 0.4, 2, 10 nM.

Test [2] concerns the target T2, 재조합 마우스 ASM(acid sphingomyelinase) 단백질 (mouse, UniProt Q04519 45-626, limits assumed).
T2 construct: Recombinant protein; also called 마우스 ASM 단백질; recombinant mouse ASM protein
T2 sequence: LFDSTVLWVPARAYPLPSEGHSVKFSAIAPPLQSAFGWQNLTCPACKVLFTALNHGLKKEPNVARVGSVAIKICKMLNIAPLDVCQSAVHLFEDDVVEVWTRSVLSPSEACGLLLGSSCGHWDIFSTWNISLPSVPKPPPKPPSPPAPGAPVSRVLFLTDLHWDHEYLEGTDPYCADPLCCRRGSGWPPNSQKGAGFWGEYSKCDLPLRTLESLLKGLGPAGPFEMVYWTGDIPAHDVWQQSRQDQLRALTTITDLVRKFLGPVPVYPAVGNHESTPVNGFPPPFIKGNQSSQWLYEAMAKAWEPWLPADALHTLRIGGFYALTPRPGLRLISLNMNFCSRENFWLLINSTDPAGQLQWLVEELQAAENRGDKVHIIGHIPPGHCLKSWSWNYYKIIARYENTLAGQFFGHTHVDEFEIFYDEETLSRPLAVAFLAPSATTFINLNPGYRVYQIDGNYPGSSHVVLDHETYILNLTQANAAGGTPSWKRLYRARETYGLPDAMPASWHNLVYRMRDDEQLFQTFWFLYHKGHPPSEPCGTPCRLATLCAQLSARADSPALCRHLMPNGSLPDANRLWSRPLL
The test is described as follows: BLI (Octet QK384), mouse ASM amine-coupled on AR2G sensor, antibody 0.4, 2, 10 nM; poor fit (RMax 0.0185, Full R2 0.5527), text does not count it as binding. (Biolayer interferometry detects binding as a change in optical thickness at a sensor tip.)

Test [3] has as its target T1, 재조합 인간 ASM(acid sphingomyelinase) 단백질. Description: ELISA, recombinant human ASM coated at 1 ㎍/㎖, anti-mouse IgG-HRP. In general terms: In an ELISA, binding on a coated surface is turned into a signal by an enzyme label.
In test [4] the target is T2, 재조합 마우스 ASM(acid sphingomyelinase) 단백질. The test is described as follows: BLI (Octet QK384), mouse ASM amine-coupled on AR2G sensor, antibody 0.4, 2, 10 nM; no signal (RMax 0, Full R2 0), text does not count it as binding.
Test [5] shares this target. Description: BLI (Octet QK384), mouse ASM amine-coupled on AR2G sensor, antibody 0.4, 2, 10 nM.

B1: #9101 항체 (antibody, mouse IgG1, V domains shown)
VH: EVQLLESGGGLVQPGGSLRLSCAASGFTFSNYAMSWVRQAPGKGLEWVSGIYPNGGNKYYADSVKGRFTISRDNSKNTLYLQMNSLRAEDTAVYYCAKNAYRFDYWGQGTLVTVSS
VL: QSVLTQPPSASGTPGQRVTISCSGSSSNIGNNYVSWYQQLPGTAPKLLIYADSKRPSGVPDRFSGSKSGTSASLAIGGLRSEDEADYYCGSWDYSLNAYVFGGGTKLTVLG
In the case of B1, in test [1], binding was put at a Kd of 1.16 nM, the koff turned out to be 0.000728 s⁻¹ and the kon was 626000 M⁻¹ s⁻¹. In test [2], the Kd worked out at 0.0425 nM, the koff stood at 0.000159 s⁻¹ and the kon amounted to 3.76e+06 M⁻¹ s⁻¹. Moreover, the EC50 in test [3] worked out at 0.0815 nM.

B2: #9113 항체 (antibody, mouse IgG1, V domains shown)
VH: EVQLLESGGGLVQPGGSLRLSCAASGFTFSSYYMSWVRQAPGKGLEWVSSISPGGSSIYYADSVKGRFTISRDNSKNTLYLQMNSLRAEDTAVYYCAKGASLFDYWGQGTLVTVSS
VL: QSVLTQPPSASGTPGQRVTISCSGSSSNIGNNAVSWYQQLPGTAPKLLIYSDNKRPSGVPDRFSGSKSGTSASLAISGLRSEDEADYYCGTWDASLNAYVFGGGTKLTVLG
notes: also called #9113 mIgG1
With B2, in test [1], binding was put at a Kd of 0.564 nM, the koff was determined as 0.000656 s⁻¹ and the kon turned out to be 1.16e+06 M⁻¹ s⁻¹. In test [4], this molecule showed a Kd of less than 0.001 nM, a koff of less than 1e-07 s⁻¹ and a kon of 1e+06 M⁻¹ s⁻¹.

B3: #9108 항체 (antibody, mouse IgG1, V domains shown)
VH: EVQLLESGGGLVQPGGSLRLSCAASGFTFSNYAMSWVRQAPGKGLEWVSAIYPGGGSIYYADSVKGRFTISRDNSKNTLYLQMNSLRAEDTAVYYCARDVLGLTPKPFDYWGQGTLVTVSS
VL: QSVLTQPPSASGTPGQRVTLSCTGSSSNIGSNTVYWYQQLPGTAPKLLIYANSQRPSGVPDRFSGSKSGTSASLAISGLRSEDEADYYCGSWDYSLSGYVFGGGTKLTVLG
Turning to B3, in test [1], the affinity, expressed as Kd, was 0.119 nM; the koff came to 2.96e-05 s⁻¹; the kon was 249000 M⁻¹ s⁻¹. Further, the EC50 in test [3] is 0.327 nM. Further, in test [5], the Kd came out at 3.39 nM, the koff was determined as 0.00156 s⁻¹ and the kon was determined as 459000 M⁻¹ s⁻¹.

B4: #9104 항체 (antibody, mouse IgG1, V domains shown)
VH: EVQLLESGGGLVQPGGSLRLSCAASGFTFSNYYMSWVRQAPGKGLEWVSGIYYGSGNIYYADSVKGRFTISRDNSKNTLYLQMNSLRAEDTAVYYCARDTPGFDYWGQGTLVTVSS
VL: QSVLTQPPSASGTPGQRVTISCTGSSSNIGNNAVNWYQQLPGTAPKLLIYYDSHRPSGVPDRFSGSKSGTSASLAISGLRSEDEADYYCGAWDYSLSAYVFGGGTKLTVLG
In test [1], B4 registered an equilibrium dissociation constant (Kd) of 0.209 nM, a koff of 8.18e-05 s⁻¹ and a kon of 392000 M⁻¹ s⁻¹. In addition, the EC50 in test [3] worked out at 1.95 nM. In test [5], this molecule displayed a Kd of 0.638 nM, a koff of 0.000198 s⁻¹ and a kon of 310000 M⁻¹ s⁻¹.

B5: #9102 항체 (antibody, mouse IgG1, V domains shown)
VH: EVQLLESGGGLVQPGGSLRLSCAASGFTFSGYYMSWVRQAPGKGLEWVSLISPGSGSIYYADSVKGRFTISRDNSKNTLYLQMNSLRAEDTAVYYCAKSWHHFDYWGQGTLVTVSS
VL: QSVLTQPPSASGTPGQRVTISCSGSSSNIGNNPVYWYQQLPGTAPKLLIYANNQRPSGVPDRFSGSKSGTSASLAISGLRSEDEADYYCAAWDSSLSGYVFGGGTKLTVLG
In test [1], B5 displayed a Kd of 0.252 nM, a koff of 0.000105 s⁻¹ and a kon of 416000 M⁻¹ s⁻¹. In test [3], the EC50 was determined as 0.0954 nM. Also, in test [5], the Kd was found to be 0.498 nM, the off-rate constant (koff) stood at 0.000243 s⁻¹ and the kon stood at 489000 M⁻¹ s⁻¹.

B6: #9123 항체 (antibody, mouse IgG1, V domains shown)
VH: EVQLLESGGGLVQPGGSLRLSCAASGFTFSDYAMSWVRQAPGKGLEWVSAISYGGGNIYYADSVKGRFTISRDNSKNTLYLQMNSLRAEDTAVYYCARVGGMCTRRQCYYDYGMDVWGQGTLVTVSS
VL: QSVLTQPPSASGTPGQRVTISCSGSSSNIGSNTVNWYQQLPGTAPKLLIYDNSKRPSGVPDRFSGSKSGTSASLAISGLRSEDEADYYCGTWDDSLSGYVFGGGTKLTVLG
notes: also called #9123 mIgG1
In the case of B6, the EC50 in test [3] stood at 0.758 nM.

One may read the Kd as the concentration at which binding is half-saturated. One may read the koff as the rate constant with which the complex falls apart. Usually kon stands for the rate constant with which the complex forms. As a reminder, the EC50 is the concentration at which the effect is half-maximal.
